According to the supplement of paper PMC10567573:

B1: KCNK9 (parent)
chain: DVPDLQSVCSCTCYRSQDYGGRSV
B2: INTS3 (parent)
chain: KKREFRFHPIKETVVEEPVDITPY

Variants of: B1
Test: protein stability index of a GFP-peptide fusion (GPS, HEK-293T) (PSI 1-6); higher = more stable
Conditions: c terminus: a fixed tail appended
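Also: lentivirally expressed fusions sorted by FACS into six bins by GFP to DsRed ratio, PSI derived from sequencing read proportions per bin multiplied by bin number.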

Row | Variant | protein stability index
1 | V24Q | 1.72
2 | V24E | 2.15
3 | V24S | 1.68
4 | V24K | 1.45
5 | V24D | 2.69
6 | V24P | 2.35
7 | V24I | 2.37
8 | V24Y | 1.49
9 | V24L | 2.44
10 | V24N | 2.5
11 | V24A | 1.68
12 | V24H | 1.64
13 | V24C | 1.49
14 | V24F | 1.13
15 | V24T | 2.73
16 | V24W | 2.42
17 | R22I | 1.93
18 | R22A | 1.84
19 | R22L | 3.27
20 | R22S | 2.2
21 | R22V | 2.82
22 | R22Y | 1.47
23 | R22T | 1.89
24 | R22F | 1.33
25 | R22H | 2.43

Row | Variant | protein stability index
26 | R22K | 3.06
27 | R22N | 2.6
28 | R22W | 2.4
29 | R22Q | 3.22
30 | R22E | 3.3
31 | R22P | 2.16
32 | R22M | 2.04
33 | R22D | 3.58
34 | R22G | 2.06
35 | R22C | 2.38
36 | D18V | 1.82
37 | D18C | 1.97
38 | D18L | 1.73
39 | D18E | 1.21
40 | D18N | 2.08
41 | D18K | 1.65
42 | D18T | 1.83
43 | D18R | 1.36
44 | D18W | 1.61
45 | D18Y | 1.56
46 | D18F | 1.2
47 | D18M | 1.63
48 | D18H | 2.85
49 | D18P | 1.67
50 | D18S | 2.33

Row | Variant | protein stability index
51 | D18Q | 1.51
52 | Q17P | 1.27
53 | Q17F | 1.95
54 | Q17R | 2.58
55 | Q17S | 2.41
56 | Q17K | 1.86
57 | Q17H | 2.14
58 | Q17E | 2.07
59 | Q17M | 2.76
60 | Q17I | 1.87
61 | Q17N | 1.51
62 | Q17T | 2.39
63 | Q17A | 1.56
64 | Q17D | 2.15
65 | Q17C | 2.31
66 | Q17L | 3.13
67 | Q17W | 2.44
68 | Q17G | 2.21
69 | Y14V | 2.38
70 | Y14D | 1.92
71 | Y14P | 2.71
72 | Y14W | 3.24
73 | Y14M | 3.61
74 | Y14I | 1.83
75 | Y14R | 2.37

Row | Variant | protein stability index
76 | Y14G | 2.42
77 | Y14Q | 1.53
78 | Y14L | 1.47
79 | Y14T | 1.5
80 | Y14N | 2.23
81 | Y14C | 1.75
82 | Y14F | 2.1
83 | Y14A | 1.91
84 | Y14S | 2.29
85 | Y14H | 2.55
86 | Y14K | 2.27
87 | G21F | 1.81
88 | G21H | 1.9
89 | G21S | 3.41
90 | G21A | 1.85
91 | G21V | 2.16
92 | G21K | 1.9
93 | G21Q | 1.4
94 | G21D | 2.22
95 | G21T | 2.63
96 | G21Y | 2.08
97 | G21L | 1
98 | G21R | 1.62
99 | G21P | 2.06
100 | G20H | 2.88

Row | Variant | protein stability index
101 | G20P | 2.03
102 | G20F | 1.35
103 | G20D | 2.88
104 | G20T | 1.87
105 | G20Q | 1.94
106 | G20K | 2.37
107 | G20A | 2.24
108 | G20V | 1.2
109 | G20Y | 2.8
110 | G20I | 2.15
111 | G20L | 1.67
112 | G20C | 2.26
113 | G20S | 2.07
114 | G20E | 1.97
115 | G20N | 2.03
116 | C11H | 2.02
117 | C11Y | 3.6
118 | C11N | 3.21
119 | C11I | 2.39
120 | C11V | 2.46
121 | C11P | 3.8
122 | C11E | 4.65
123 | C11K | 3.05
124 | C11M | 2.13
125 | C11F | 2.06

Row | Variant | protein stability index
126 | C11Q | 2.59
127 | C11W | 2.59
128 | C11T | 2.81
129 | C11S | 3.3
130 | C11L | 2.52
131 | C11D | 4.15
132 | C11R | 2.34
133 | Y19I | 2.18
134 | Y19A | 1.88
135 | Y19Q | 2.44
136 | Y19D | 2.41
137 | Y19K | 2.1
138 | Y19P | 1.86
139 | Y19N | 1.71
140 | Y19V | 1.66
141 | Y19R | 2.08
142 | Y19S | 1.81
143 | Y19E | 2.02
144 | Y19H | 2.27
145 | Y19F | 2.25
146 | Y19G | 1.58
147 | Y19T | 2.64
148 | Y19C | 1.88
149 | Y19M | 1.83
150 | T12V | 2.47

Row | Variant | protein stability index
151 | T12Q | 1.65
152 | T12L | 1.3
153 | T12P | 2.05
154 | T12W | 2.72
155 | T12C | 1.21
156 | T12K | 1.58
157 | T12Y | 1.94
158 | T12I | 1.57
159 | T12F | 2.76
160 | T12S | 1.31
161 | T12N | 1.62
162 | T12E | 2.4
163 | T12M | 1.25
164 | T12G | 1.52
165 | T12A | 1.78
166 | T12H | 3.13
167 | T12D | 2.79
168 | R15V | 1.28
169 | R15E | 2.52
170 | R15K | 2.08
171 | R15Y | 1.98
172 | R15T | 2.2
173 | R15S | 2.48
174 | R15H | 2.68
175 | R15P | 2.05

Row | Variant | protein stability index
176 | R15L | 1.49
177 | R15W | 2.21
178 | R15F | 1.78
179 | R15Q | 1.68
180 | R15G | 2.23
181 | R15C | 2.17
182 | R15A | 2.07
183 | R15D | 3.58
184 | V8K | 1.68
185 | V8P | 1.77
186 | V8T | 1.72
187 | V8Y | 1.86
188 | V8R | 2.29
189 | V8Q | 2.42
190 | V8W | 1.29
191 | V8L | 1.59
192 | V8S | 2.06
193 | V8N | 2.5
194 | V8I | 2
195 | V8M | 1.06
196 | S10L | 2.39
197 | S10Q | 2.25
198 | S10K | 1.76
199 | S10T | 2.47
200 | S10F | 1.26

Row | Variant | protein stability index
201 | S10D | 2.79
202 | S10P | 1.52
203 | S10N | 1.47
204 | S10H | 1.43
205 | S10Y | 1.92
206 | S10E | 2.16
207 | S10A | 1.66
208 | S10R | 1.33
209 | S23H | 1.67
210 | S23K | 4.09
211 | S23C | 1.98
212 | S23A | 1.8
213 | S23Y | 2.59
214 | S23W | 2.53
215 | S23V | 1.32
216 | S23L | 2.27
217 | S23D | 2.1
218 | S23Q | 2.12
219 | S23R | 1.48
220 | S23F | 2.11
221 | S23G | 2.96
222 | S23I | 3.17
223 | S23N | 2.14
224 | C9Q | 2.03
225 | C9T | 1.89

Row | Variant | protein stability index
226 | C9M | 2.06
227 | C9P | 1.67
228 | C9A | 2.7
229 | C9K | 2.29
230 | C9V | 2.18
231 | C9G | 1.75
232 | C9D | 3.26
233 | C9E | 2.37
234 | C9F | 2.01
235 | C9S | 3.05
236 | C9N | 2.66
237 | C9I | 2.38
238 | C9H | 1.71
239 | C9L | 2.16
240 | C9Y | 1.82
241 | C13K | 1.82
242 | C13W | 1.75
243 | C13G | 3.14
244 | C13M | 1.73
245 | C13S | 2.79
246 | C13D | 2.12
247 | C13T | 3
248 | C13Q | 2.69
249 | C13Y | 1.94
250 | C13N | 2.53

Row | Variant | protein stability index
251 | C13F | 1.14
252 | C13P | 2.81
253 | C13L | 1.97
254 | C13A | 2.28
255 | C13R | 2.19
256 | C13V | 2.31
257 | C13I | 2.85
258 | C13E | 2.85
259 | S16Y | 2.31
260 | S16T | 2.18
261 | S16A | 1.2
262 | S16G | 1.07
263 | S16C | 2.5
264 | S16R | 1.65
265 | S16V | 1.03
266 | S16P | 3.56
267 | S16F | 2.78
268 | S16N | 2.1
269 | S16L | 2.87
270 | S16K | 2.08
271 | S16H | 1.8
272 | S16I | 2.85
273 | S16E | 1.79
274 | S16D | 1.85
275 | S16M | 2.21

Variants of: B2
Test: as above
Conditions: c terminus: a fixed tail appended

Row | Variant | protein stability index
276 | E4A | 2.29
277 | E4C | 3.03
278 | K2F | 2.08
279 | K2V | 1.37
280 | K2C | 1.9
281 | K2T | 2.14
282 | K2N | 1.82
283 | K2D | 2.53
284 | K2L | 1.83
285 | K2E | 2.55
286 | K2Y | 1.6
287 | K2I | 2.55
288 | K2P | 2.5
289 | K2H | 1.67
290 | K2A | 1.56
291 | K2Q | 2.17
292 | K2M | 2.2
293 | K2R | 2.29
294 | K2W | 2.03
295 | K2S | 2.38

Row | Variant | protein stability index
296 | K2G | 2.11
297 | R3C | 2.35
298 | R3A | 1.82
299 | R3M | 1.43
300 | R3N | 1.76
301 | R3W | 1.44
302 | R3D | 2.84
303 | R3L | 1.61
304 | R3V | 1.92
305 | R3K | 2.46
306 | R3F | 1.62
307 | R3H | 2.14
308 | R3P | 1.66
309 | R3E | 2.74
310 | R3Q | 1.89
311 | R3Y | 2.25
312 | R3I | 2.25
313 | R3G | 1.72
314 | R3S | 1.66
315 | R3T | 1.73

Row | Variant | protein stability index
316 | K1F | 2.04
317 | K1C | 1.81
318 | K1D | 2.01
319 | K1Q | 1.97
320 | K1A | 2.29
321 | K1E | 2.27
322 | K1L | 2.25
323 | K1R | 1.84
324 | K1N | 1.94
325 | K1G | 1.69
326 | K1P | 1.66
327 | K1M | 1.96
328 | K1S | 1.8
329 | K1T | 2.01
330 | K1V | 2.74
331 | K1W | 2.1
332 | K1Y | 2.12
333 | K1I | 1.65
334 | K1H | 1.73
